The values below come from paper PMC8595303, “Dramatic activation of an antibody by a single amino acid change in framework” (Scientific Reports, 2021).

B1: Fab fragment of h4A11.v2 (Fab, V domains shown)
VH: EQQLVESGGGLVQPGGSLRLSCAVSGFSLSSYTVNWVRQAPGKGLEWIGYISYGGSAYYASWANGRFTISKDSAKNSVYLQMNSLRAEDTAVYFCARHMQVGGAPTGSMAAFDPWGPGTLVTVSS
VL: DAQLTQSPSSLSASVGDRVTITCQSSQSVYNNNYLSWFQQKPGKPPKLLIYGASTLTSGVPSRFSGSGSGTDFTLTISSLQPEDFATYYCAGGYSGSSDKYAFGGGTKVEIK
notes: Fab heavy chain of h4A11.v2; its VH as the VH of m7; Fab light chain of h4A11.v2; its VL as the VL of m7; also called h4A11.v2-Fab; h4A11.v2 Fab; source: E. coli, purified (Protein G, SP-sepharose)
B2: humanized 4A11 variant 3 (antibody, V domains shown)
VH: EQQLQESGPGLVKPSETLSLTCTVTGFSLSSYTVNWVRQPAGKGLEWIGYISYGGSAYYASWANGRFTISKDSSKNQVSLKLSSVTAADTAVYFCARHMQVGGAPTGSMAAFDPWGPGTLVTVSS
VL: DAVLTQSPDSLAVSLGERATINCQSSQSVYNNNYLSWFQQKPGQPPKLLIYGASTLTSGVPDRFSGSGSGTDFTLTISSLQAEDVAVYYCAGGYSGSSDKYAFGGGTKVEIK
notes: as the VH of m12 (h4A11.v7): rbt4A11 CDRs and rabbit Vernier residues grafted on human germline IGHV4-59*06; as the VL of m6 (h4A11.v1): rbt4A11 CDRs and rabbit Vernier residues grafted on human germline IGKV4-1*01; human IgG1; also called h4A11.v3; v3; source: Expi293F, transient, purified (Protein A, SEC)
B3: humanized 4A11 variant 8 (antibody, V domains shown)
VH: B2 VH
VL: DAVLTQTPLSSPVTLGQPASISCQSSQSVYNNNYLSWFQQRPGQPPRLLIYGASTLTSGVPDRFSGSGAGTDFTLKISRVEAEDVGVYYCAGGYSGSSDKYAFGGGTKVEIK
notes: as the VH of m12 (h4A11.v7): rbt4A11 CDRs and rabbit Vernier residues grafted on human germline IGHV4-59*06; as the VL of m11 (h4A11.v6): rbt4A11 CDRs and rabbit Vernier residues grafted on human germline IGKV2-24*01; human IgG1; also called h4A11.v8; v8; source: Expi293F, transient, purified (Protein A, SEC)
B4: humanized 4A11 variant 1 (antibody, V domains shown)
VH: B1 VH
VL: B2 VL
notes: as the VH of m7 (h4A11.v2): rbt4A11 CDRs and rabbit Vernier residues grafted on human germline IGHV3-48*01; rbt4A11 CDRs and rabbit Vernier residues (VL positions 2, 4, 36, 43, 58) grafted on human germline IGKV4-1*01; human IgG1; also called h4A11.v1; v1; source: Expi293F, transient, purified (Protein A, SEC)
B5: humanized 4A11 variant 4 (antibody, V domains shown)
VH: B2 VH
VL: B1 VL
notes: as the VH of m12 (h4A11.v7): rbt4A11 CDRs and rabbit Vernier residues grafted on human germline IGHV4-59*06; as the VL of m7 (h4A11.v2): rbt4A11 CDRs and rabbit Vernier residues grafted on human germline IGKV1D-39*01; human IgG1; also called h4A11.v4; v4; source: Expi293F, transient, purified (Protein A, SEC)
B6: humanized 4A11 variant 7 (antibody, V domains shown)
VH: B2 VH
VL: EAVLTQSPGTLSLSPGERATLSCQSSQSVYNNNYLSWFQQKPGQPPRLLIYGASTLTSGVPDRFSGSGSGTDFTLTISRLEPEDFAVYYCAGGYSGSSDKYAFGGGTKVEIK
notes: rbt4A11 CDRs (Kabat and Chothia) and rabbit Vernier residues (VH positions 2, 24, 37, 48, 49, 67, 71, 78, 91, 105) grafted on human germline IGHV4-59*06; has S19, S79, K81 (Kabat numbering); rbt4A11 CDRs and rabbit Vernier residues (VL positions 2, 4, 36, 43, 58) grafted on human germline IGKV3-20*01; human IgG1; also called h4A11.v7; v7; source: Expi293F, transient, purified (Protein A, SEC)
B7: humanized 4A11 variant 5 (antibody, V domains shown)
VH: B1 VH
VL: B6 VL
notes: as the VH of m7 (h4A11.v2): rbt4A11 CDRs and rabbit Vernier residues grafted on human germline IGHV3-48*01; as the VL of m12 (h4A11.v7): rbt4A11 CDRs and rabbit Vernier residues grafted on human germline IGKV3-20*01; human IgG1; also called h4A11.v5; v5; source: Expi293F, transient, purified (Protein A, SEC)
B8: humanized 4A11 variant 2 (antibody, V domains shown)
VH: B1 VH
VL: B1 VL
notes: rbt4A11 CDRs (Kabat and Chothia) and rabbit Vernier residues (VH positions 2, 24, 37, 48, 49, 67, 71, 78, 91, 105) grafted on human germline IGHV3-48*01; has R19, Y79, Q81 (Kabat numbering); rbt4A11 CDRs and rabbit Vernier residues (VL positions 2, 4, 36, 43, 58) grafted on human germline IGKV1D-39*01; human IgG1; also called h4A11.v2; v2; source: Expi293F, transient, purified (Protein A, SEC)
B9: humanized 4A11 variant 6 (antibody, V domains shown)
VH: B1 VH
VL: B3 VL
notes: as the VH of m7 (h4A11.v2): rbt4A11 CDRs and rabbit Vernier residues grafted on human germline IGHV3-48*01; rbt4A11 CDRs and rabbit Vernier residues (VL positions 2, 4, 36, 43, 58) grafted on human germline IGKV2-24*01; human IgG1; also called h4A11.v6; v6; source: Expi293F, transient, purified (Protein A, SEC)

The target in one test is T1, mature form of human TGFβ2 (made from LAP-TGFβ2 in CHO, for crystallization) (Homo sapiens).
T1 construct: Transforming Growth Factor-beta 2, human, mature form separated from LAP-TGFβ2; also called TGFb2; TGFβ2 dimer
T1 chain: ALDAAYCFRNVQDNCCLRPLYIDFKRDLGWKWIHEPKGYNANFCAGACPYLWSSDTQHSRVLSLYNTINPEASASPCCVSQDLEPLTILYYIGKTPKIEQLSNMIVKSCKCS
Nature of the test: crystal structure; TGFβ2 and h4A11.v2 Fab mixed at 1:1 molar ratio, complex purified on Superdex-200 (25 mM Tris-HCl pH 7.5, 200 mM NaCl); crystals by vapor diffusion at 19 °C, 15% PEG 4000, 0.1 M Na Cacodylate pH 6.0; 2.9 Å. Conditions: both partners purified.
Consider B1, for which the binding result is “binds”.

For a further test, the target named is T2, human mature TGFβ3 (Homo sapiens, UniProt P10600).
T2 construct: Transforming Growth Factor-beta 3, human, mature form (cut from the precursor); also called TGFb3; source: bought: PeproTech
T2 sequence (P10600 301-412): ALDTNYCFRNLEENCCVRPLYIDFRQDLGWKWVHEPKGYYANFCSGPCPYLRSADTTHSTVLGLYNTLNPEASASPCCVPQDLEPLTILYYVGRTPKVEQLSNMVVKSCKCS
Kind of test: SPR; Biacore T200; antibody captured on a Protein A sensor chip (about 90 RU); mature TGFβ isoform injected, five-fold dilutions 0.008 nM to 5 nM; HBS-EP pH 7.4, 150 mM NaCl; 37 °C; 100 μl/min; 3 min association, 60 min dissociation; one-to-one Langmuir model, global fit. Conditions: both partners purified. A general note: SPR reads the build-up and loss of mass on a sensor chip optically.
The Kd is the free concentration of one partner at which half of the binding sites on the other are occupied at equilibrium, for simple one-to-one binding. As to B2, the Kd came to 0.0121 nM.
Turning to B3, the Kd came to 0.0141 nM.
The molecule B4 came in with a Kd of 0.0144 nM.
Molecule B5 came in with a Kd of 0.0101 nM.
Regarding B6, the Kd stood at 0.0097 nM.
On the same count and under the same terms, the value for B7 was 0.0139 nM; that for B8 was 0.0133 nM.
In turn, B9 yielded a Kd of 0.0125 nM.

For a further test, the target named is T3, human mature TGFβ1 (Homo sapiens, UniProt P01137).
T3 construct: Transforming Growth Factor-beta 1, human, mature form (cut from the precursor); also called TGFb1; source: bought: PeproTech
T3 sequence (P01137 279-390): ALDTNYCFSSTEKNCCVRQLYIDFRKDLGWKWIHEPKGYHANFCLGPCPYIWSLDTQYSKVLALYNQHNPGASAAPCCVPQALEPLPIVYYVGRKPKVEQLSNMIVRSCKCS
The test is described as above. The following applies: both partners purified.
With B2, the Kd was above 5 nM and the binding result is “no binding (tested: 5 nM)”.
On to B3, for which the Kd was above 5 nM and the binding result is “no binding (tested: 5 nM)”.
For B4, in that order: above 5 nM and “no binding (tested: 5 nM)”.
On to B5, for which the Kd is above 5 nM and the binding result was “no binding (tested: 5 nM)”.
Regarding B6, the Kd is above 5 nM and the binding result is “no binding (tested: 5 nM)”.
The corresponding values for B7 are above 5 nM and “no binding (tested: 5 nM)”.
The corresponding values for B8 are above 5 nM and “no binding (tested: 5 nM)”.
In the case of B9, the Kd was above 5 nM and the binding result is reported as “no binding (tested: 5 nM)”.

The target in another test is T4, human mature TGFβ2 (PeproTech) (Homo sapiens, UniProt P61812).
T4 construct: Transforming Growth Factor-beta 2, human, mature form (cut from the precursor); also called TGFb2; source: bought: PeproTech
The test is described as above. Conditions: both partners purified.
Turning to B2, the Kd amounted to 9.6 pM.
Still for that read-out and setting: the value for B3 was 8.2 pM; that for B4 was 4.6 pM; that for B5 was 10 pM.
On to B6, for which the Kd was 6.3 pM.
Regarding B7, binding was put at a Kd of 12.1 pM.
B8: the Kd stood at 1.4 pM.
Molecule B9 came in with a Kd of 8.4 pM.

The target of the next test is T2, human mature TGFβ3. Nature of the test: cell-based or functional assay.
Details: not given
On to B2, for which the “TGFβ inhibition by HEK-Blue cells (IC50: nM), TGFb3; Blocking: Complete” value (“TGFβ inhibition … TGFb3; Blocking: Complete” for short) came out at 0.2 nM.
With B3, the “TGFβ inhibition … TGFb3; Blocking: Complete” value was 0.7 nM.
For the molecule B4, the “TGFβ inhibition by HEK-Blue cells (IC50: nM), TGFb3; Blocking: Incomplete” value (shortened to “TGFβ inhibition … TGFb3; Blocking: Incomplete”) is above 667 nM.
On to B5, for which the “TGFβ inhibition … TGFb3; Blocking: Complete” value was 0.1 nM.
Regarding B6, the “TGFβ inhibition … TGFb3; Blocking: Complete” value amounted to 0.2 nM.
Turning to B7, the “TGFβ inhibition … TGFb3; Blocking: Incomplete” value was above 667 nM.
With B8, the “TGFβ inhibition … TGFb3; Blocking: Incomplete” value is above 667 nM.
Turning to B9, the “TGFβ inhibition … TGFb3; Blocking: Incomplete” value was above 667 nM.

In a further test the target is T3, human mature TGFβ1. Kind of test: cell-based or functional assay.
Details: not given
Take B2: the “TGFβ inhibition by HEK-Blue cells (IC50: nM), TGFb1” value (from here on “TGFβ inhibition … TGFb1”) is above 667 nM.
Consider B3, for which the “TGFβ inhibition … TGFb1” value was above 667 nM.
With B4, the “TGFβ inhibition … TGFb1” value was above 667 nM.
Same read-out and setting: the value for B5 was above 667 nM; that for B6 was above 667 nM; that for B7 was above 667 nM.
Take B8: the “TGFβ inhibition … TGFb1” value is above 667 nM.
B9: the “TGFβ inhibition … TGFb1” value was above 667 nM.

A further test concerns the target T4, human mature TGFβ2 (PeproTech). Nature of the test: cell-based or functional assay.
Details: not given
In the case of B2, the “TGFβ inhibition by HEK-Blue cells (IC50: nM), TGFb2; Blocking: Complete” value (from here on “TGFβ inhibition … TGFb2; Blocking: Complete”) stood at 3.9 nM.
The same measure, in the same setting: the value for B3 was 4.8 nM.
Consider B4, for which the “TGFβ inhibition by HEK-Blue cells (IC50: nM), TGFb2; Blocking: Incomplete” value (“TGFβ inhibition … TGFb2; Blocking: Incomplete” below) is above 667 nM.
In the case of B5, the “TGFβ inhibition … TGFb2; Blocking: Complete” value came to 1.9 nM.
As for B6, the “TGFβ inhibition … TGFb2; Blocking: Complete” value was found to be 0.9 nM.
Turning to B7, the “TGFβ inhibition … TGFb2; Blocking: Incomplete” value is above 667 nM.
As for B8, the “TGFβ inhibition … TGFb2; Blocking: Incomplete” value is above 667 nM.
In the case of B9, the “TGFβ inhibition … TGFb2; Blocking: Incomplete” value was above 667 nM.
